T1: full-length human recombinant IGFBP-4
T1 chain: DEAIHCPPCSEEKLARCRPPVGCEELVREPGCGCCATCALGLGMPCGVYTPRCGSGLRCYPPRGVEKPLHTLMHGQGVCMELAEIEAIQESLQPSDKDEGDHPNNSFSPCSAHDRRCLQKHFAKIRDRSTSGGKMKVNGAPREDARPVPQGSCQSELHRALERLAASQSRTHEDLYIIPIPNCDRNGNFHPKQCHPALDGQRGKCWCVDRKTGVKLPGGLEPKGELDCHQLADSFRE

B1: atherosclerotic form of PAPP-A (protein)
chain: EARGATEEPSPPSRALYFSGRGEQLRLRADLELPRDAFTLQVWLRAEGGQRSPAVITGLYDKCSYISRDRGWVVGIHTISDQDNKDPRYFFSLKTDRARQVTTINAHRSYLPGQWVYLAATYDGQFMKLYVNGAQVATSGEQVGGIFSPLTQKCKVLMLGGSALNHNYRGYIEHFSLWKVARTQREILSDMETHGAHTALPQLLLQENWDNVKHAWSPMKDGSSPKVEFSNAHGFLLDTSLEPPLCGQTLCDNTEVIASYNQLSSFRQPKVVRYRVVNLYEDDHKNPTVTREQVDFQHHQLAEAFKQYNISWELDVLEVSNSSLRRRLILANCDISKIGDENCDPECNHTLTGHDGGDCRHLRHPAFVKKQHNGVCDMDCNYERFNFDGGECCDPEITNVTQTCFDPDSPHRAYLDVNELKNILKLDGSTHLNIFFAKSSEEELAGVATWPWDKEALMHLGGIVLNPSFYGMPGHTHTMIHEIGHSLGLYHVFRGISEIQSCSDPCMETEPSFETGDLCNDTNPAPKHKSCGDPGPGNDTCGFHSFFNTPYNNFMSYADDDCTDSFTPNQVARMHCYLDLVYQGWQPSRKPAPVALAPQVLGHTTDSVTLEWFPPIDGHFFERELGSACHLCLEGRILVQYASNASSPMPCSPSGHWSPREAEGHPDVEQPCKSSVRTWSPNSAVNPHTVPPACPEPQGCYLELEFLYPLVPESLTIWVTFVSTDWDSSGAVNDIKLLAVSGKNISLGPQNVFCDVPLTIRLWDVGEEVYGIQIYTLDEHLEIDAAMLTSTADTPLCLQCKPLKYKVVRDPPLQMDVASILHLNRKFVDMDLNLGSVYQYWVITISGTEESEPSPAVTYIHGSGYCGDGIIQKDQGEQCDDMNKINGDGCSLFCRQEVSFNCIDEPSRCYFHDGDGVCEEFEQKTSIKDCGVYTPQGFLDQWASNASVSHQDQQCPGWVIIGQPAASQVCRTKVIDLSEGISQHAWYPCTISYPYSQLAQTTFWLRAYFSQPMVAAAVIVHLVTDGTYYGDQKQETISVQLLDTKDQSHDLGLHVLSCRNNPLIIPVVHDLSQPFYHSQAVRVSFSSPLVAISGVALRSFDNFDPVTLSSCQRGETYSPAEQSCVHFACEKTDCPELAVENASLNCSSSDRYHGAQCTVSCRTGYVLQIRRDDELIKSQTGPSVTVTCTEGKWNKQVACEPVDCSIPDHHQVYAASFSCPEGTTFGSQCSFQCRHPAQLKGNNSLLTCMEDGLWSFPEALCELMCLAPPPVPNADLQTARCRENKHKVGSFCKYKCKPGYHVPGSSRKSKKRAFKTQCTQDGSWQEGACVPVTCDPPPPKFHGLYQCTNGFQFNSECRIKCEDSDASQGLGSNVIHCRKDGTWNGSFHVCQEMQGQCSVPNELNSNLKLQCPDGYAIGSECATSCLDHNSESIILPMNVTVRDIPHWLNPTRVERVVCTAGLKWYPHPALIHCVKGCEPFMGDNYCDAINNRAFCNYDGGDCCTSTVKTKKVTPFPMSCDLQGDCACRDPQAQEHSRKDLRGYSHG
B2: human recombinant PAPP-A (protein)
chain: B1 chain

Assays:
[1] = biological target: T1, full-length human recombinant IGFBP-4
[2] = biological target: full-length human recombinant IGFBP-5
Chain of full-length human recombinant IGFBP-5 (chain, as listed by the source): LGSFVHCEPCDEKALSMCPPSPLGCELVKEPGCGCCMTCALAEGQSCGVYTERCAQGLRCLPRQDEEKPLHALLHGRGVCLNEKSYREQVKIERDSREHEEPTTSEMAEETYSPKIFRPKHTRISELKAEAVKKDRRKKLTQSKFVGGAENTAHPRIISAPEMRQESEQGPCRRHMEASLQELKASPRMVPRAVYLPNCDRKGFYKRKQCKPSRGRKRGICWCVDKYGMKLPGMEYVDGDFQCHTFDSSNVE

| Protein | proteolytic cleavage of IGFBP-4, Western blotting [1] | proteolytic cleavage of IGFBP-5, SDS-PAGE with Coomassie staining [2] |
| --- | --- | --- |
| B1 | atherosclerotic form of PAPP-A was shown to cleave IGFBP-4 with the same efficiency as recombinant PAPP-A | – |
| B2 | Western blotting detection of proteolytic fragments of IGFBP-4 demonstrating PAPP-A protease activity | PAPP-A-dependent cleavage of IGFBP-5 determined by sodium dodecyl sulphate polyacrylamide gel electrophoresis |

Source: patent US20140017714
